Measured values as given in US20250302942A1 (LG CHEM, published 2025).

Biological target: T1, ACE2-Fc (LG chem) (human, UniProt Q9BYF1 18-740)
T1 construct: extracellular domain; also called ACE2-ED; extracellular domain of human Angiotensin Converting Enzyme 2 protein; not shown: Fc part of ACE2-Fc
Assay: BLI (Octet QKe), ACE2-Fc captured on Protein A sensor, analyte at 100 ug/mL

T1 sequence (Q9BYF1 18-740): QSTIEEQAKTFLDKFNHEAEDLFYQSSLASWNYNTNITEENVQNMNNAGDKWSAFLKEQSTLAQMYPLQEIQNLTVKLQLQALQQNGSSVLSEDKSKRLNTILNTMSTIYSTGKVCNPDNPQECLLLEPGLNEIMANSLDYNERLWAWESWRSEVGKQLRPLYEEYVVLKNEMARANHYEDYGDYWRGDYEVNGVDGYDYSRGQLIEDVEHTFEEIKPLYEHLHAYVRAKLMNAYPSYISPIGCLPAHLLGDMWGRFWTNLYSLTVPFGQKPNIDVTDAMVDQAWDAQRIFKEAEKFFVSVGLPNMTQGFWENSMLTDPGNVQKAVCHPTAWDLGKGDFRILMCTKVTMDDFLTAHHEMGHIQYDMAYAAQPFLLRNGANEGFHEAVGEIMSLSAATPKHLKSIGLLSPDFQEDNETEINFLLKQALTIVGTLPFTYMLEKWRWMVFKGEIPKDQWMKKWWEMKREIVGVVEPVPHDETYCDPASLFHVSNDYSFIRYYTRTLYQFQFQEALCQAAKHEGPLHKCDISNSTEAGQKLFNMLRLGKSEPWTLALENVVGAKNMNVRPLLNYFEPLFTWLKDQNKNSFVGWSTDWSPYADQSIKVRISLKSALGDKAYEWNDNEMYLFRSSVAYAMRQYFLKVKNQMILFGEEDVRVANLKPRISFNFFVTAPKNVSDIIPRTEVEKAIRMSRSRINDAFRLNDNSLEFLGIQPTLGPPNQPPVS

B1: Hepatitis B surface antigen (HBsAg) VLP (other)
chain: MESTTSGFLGPLLVLQAGFFLLTRILTIPQSLDSWWTSLNFLGGAPTCPGQNSQSPTSNHSPTSCPPICPGYRWMCLRRFIIFLFILLLCLIFLLVLLDYQGMLPVCPLLPGTSTTSTGPCKTCTIPAQGTSMFPSCCCTKPSDGNCTCIPIPSSWAFARFLWEWASVRFSWLSLLVPFVQWFAGLSPTVWLSVIWMMWYWGPSLYNILSPFLPLLPIFFCLWVYI
notes: also called HBsAg1
ACE2 Binding activity: 0.24
